Source: patent US20100129807A1 (published 2010)
Where no end group is shown, it is not given here.

Molecular target: T1, bacterial repressor protein LexA (UniProt P0A7C2 1-202)
T1 construct: One entry is used for LexA in all assays; also called LexA target (pEG202); LexA bait
T1 sequence: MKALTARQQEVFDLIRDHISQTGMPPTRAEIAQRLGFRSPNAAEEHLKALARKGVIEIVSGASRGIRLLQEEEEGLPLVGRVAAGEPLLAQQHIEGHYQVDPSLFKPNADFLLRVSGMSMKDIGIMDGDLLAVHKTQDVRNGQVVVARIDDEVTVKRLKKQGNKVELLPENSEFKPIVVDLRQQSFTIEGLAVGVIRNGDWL
Test: SPR (BiacoreX), L2 peptide immobilised on a CM5 chip, LexA injected

B1: synthetic linear L2 peptide with a TAT importer sequence at the N-terminal (NH2-GRKKRRQRRRPPQ-SRSWDLPGEY) (peptide)
peptide: H-GRKKRRQRRRPPQSRSWDLPGEY
notes: Immobilised on a CM5 sensor chip for SPR
B1 showed a Kd of 1.7 µM.
